Test results: the supplement of paper PMC9112550, “Optimization of the antimicrobial peptide Bac7 by deep mutational scanning” (BMC Biology, 2022)

Test system: Escherichia coli TOP10
Test: shrunken log2 fold change of peptide-encoding DNA abundance (4.5 h post-induction vs induction); higher = less antimicrobial activity (less host growth inhibition)
Conditions: time post-induction: 4.5 h; library: site-saturation at positions 5, 18, 19, 20
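Further: peptides expressed intracellularly from a pBAD plasmid library in pooled LB shake-flask culture, induced with 0.3% L-arabinose, DNA abundance read by NGS, three biological replicates, DESeq2 with apeglm shrinkage.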

| Sequence | shrunken log2 fold change |
| --- | --- |
| RRIRERPPRLPRPRPRPEVIPRP | -0.00884 |
| RRIRERPPRLPRPRPRPVNPPRP | -0.0961 |
| RRIRPRPPRLPRPRPRPSKWPRP | -0.242 |
| RRIRERPPRLPRPRPRPQMPPRP | -0.292 |
| RRIRDRPPRLPRPRPRPWVHPRP | -0.0818 |
| RRIRLRPPRLPRPRPRPCFHPRP | -0.49 |
| RRIRRRPPRLPRPRPRPNGMPRP | -0.0764 |
| RRIRHRPPRLPRPRPRPSAHPRP | -0.139 |
| RRIRMRPPRLPRPRPRPMHHPRP | 0.0123 |
| RRIRGRPPRLPRPRPRPKGFPRP | -0.0463 |
| RRIRNRPPRLPRPRPRPGNKPRP | -0.408 |
| RRIRKRPPRLPRPRPRPSFKPRP | -0.0346 |
| RRIRTRPPRLPRPRPRPCCSPRP | 0.123 |
| RRIRWRPPRLPRPRPRPPIPPRP | 0.0875 |
| RRIRTRPPRLPRPRPRPWDPPRP | 0.102 |
| RRIRLRPPRLPRPRPRPKDFPRP | 0.0642 |
| RRIRIRPPRLPRPRPRPFVHPRP | -0.498 |
| RRIRLRPPRLPRPRPRPEWGPRP | 0.504 |
| RRIRRRPPRLPRPRPRPSAGPRP | 0.392 |
| RRIRDRPPRLPRPRPRPCYKPRP | 0.0316 |
| RRIRNRPPRLPRPRPRPDWYPRP | -0.0314 |
| RRIRSRPPRLPRPRPRPTRMPRP | 1.03 |
| RRIRWRPPRLPRPRPRPGCWPRP | 1.09 |
| RRIRARPPRLPRPRPRPYVGPRP | 0.0297 |
| RRIRVRPPRLPRPRPRPYVSPRP | -0.084 |

| Sequence | shrunken log2 fold change |
| --- | --- |
| RRIRCRPPRLPRPRPRPPRHPRP | 0.646 |
| RRIRKRPPRLPRPRPRPVQLPRP | 0.349 |
| RRIRERPPRLPRPRPRPVCGPRP | 0.243 |
| RRIRIRPPRLPRPRPRPVKWPRP | -0.0064 |
| RRIRGRPPRLPRPRPRPQVLPRP | 0.0422 |
| RRIRPRPPRLPRPRPRPTISPRP | -0.218 |
| RRIRSRPPRLPRPRPRPDLTPRP | 0.0442 |
| RRIRKRPPRLPRPRPRPVQWPRP | 0.743 |
| RRIRPRPPRLPRPRPRPAMMPRP | -0.214 |
| RRIRHRPPRLPRPRPRPWQNPRP | -0.169 |
| RRIRKRPPRLPRPRPRPTYQPRP | -0.191 |
| RRIRSRPPRLPRPRPRPWYEPRP | -0.0183 |
| RRIRQRPPRLPRPRPRPGKEPRP | 0.00212 |
| RRIRCRPPRLPRPRPRPWKNPRP | 0.0137 |
| RRIRERPPRLPRPRPRPYLGPRP | -0.12 |
| RRIRERPPRLPRPRPRPMYLPRP | -1.99 |
| RRIRDRPPRLPRPRPRPSCTPRP | -0.244 |
| RRIRMRPPRLPRPRPRPYSKPRP | -0.145 |
| RRIRSRPPRLPRPRPRPFGWPRP | 0.0625 |
| RRIRRRPPRLPRPRPRPEFEPRP | 0.37 |
| RRIRKRPPRLPRPRPRPTPFPRP | 0.113 |
| RRIRWRPPRLPRPRPRPANCPRP | 0.0179 |
| RRIRERPPRLPRPRPRPLRNPRP | 0.308 |
| RRIRFRPPRLPRPRPRPWGQPRP | 0.0397 |
| RRIRTRPPRLPRPRPRPAADPRP | 0.453 |

| Sequence | shrunken log2 fold change |
| --- | --- |
| RRIRLRPPRLPRPRPRPVCYPRP | -0.156 |
| RRIRRRPPRLPRPRPRPSAPPRP | 0.418 |
| RRIRCRPPRLPRPRPRPMIRPRP | -0.0688 |
| RRIRFRPPRLPRPRPRPGTTPRP | -0.032 |
| RRIRDRPPRLPRPRPRPITLPRP | -0.0934 |
| RRIRFRPPRLPRPRPRPRAVPRP | 0.475 |
| RRIRDRPPRLPRPRPRPSCYPRP | -0.302 |
| RRIRHRPPRLPRPRPRPKLAPRP | -0.0576 |
| RRIRDRPPRLPRPRPRPFNCPRP | 0.0412 |
| RRIRFRPPRLPRPRPRPFTMPRP | -0.817 |
| RRIRARPPRLPRPRPRPGWHPRP | 0.378 |
| RRIRLRPPRLPRPRPRPWTLPRP | 0.00677 |
| RRIRRRPPRLPRPRPRPAMQPRP | 0.423 |
| RRIRQRPPRLPRPRPRPHFAPRP | 0.0503 |
| RRIRVRPPRLPRPRPRPPDFPRP | 0.0119 |
| RRIRSRPPRLPRPRPRPDTQPRP | -0.00981 |
| RRIRLRPPRLPRPRPRPRWAPRP | 0.145 |
| RRIRVRPPRLPRPRPRPTLIPRP | 0.0816 |
| RRIRQRPPRLPRPRPRPDSHPRP | -0.065 |
| RRIRPRPPRLPRPRPRPTNRPRP | -0.104 |
| RRIRVRPPRLPRPRPRPEQQPRP | 0.0394 |
| RRIRARPPRLPRPRPRPRGSPRP | 0.708 |
| RRIRYRPPRLPRPRPRPNPGPRP | -0.000104 |
| RRIRLRPPRLPRPRPRPRTNPRP | 0.113 |
| RRIRSRPPRLPRPRPRPDRRPRP | -0.0434 |
